From publication PMC4851294 (PLoS ONE, 2016)

Tests used:
C=C(OP(=O)(O)O)C(=O)O = test: purified protein
[1] = molecular target: T1, 3-deoxy-D-arabino-heptulosonate 7-phosphate synthase (MtuDAH7PS) (Mycobacterium tuberculosis, UniProt O53512); test: X-ray crystal structure (with D/L-Trp); format: binding
T1 construct: gene aroG; chain length 464 residues, homotetramer
T1 sequence (O53512 whole entry): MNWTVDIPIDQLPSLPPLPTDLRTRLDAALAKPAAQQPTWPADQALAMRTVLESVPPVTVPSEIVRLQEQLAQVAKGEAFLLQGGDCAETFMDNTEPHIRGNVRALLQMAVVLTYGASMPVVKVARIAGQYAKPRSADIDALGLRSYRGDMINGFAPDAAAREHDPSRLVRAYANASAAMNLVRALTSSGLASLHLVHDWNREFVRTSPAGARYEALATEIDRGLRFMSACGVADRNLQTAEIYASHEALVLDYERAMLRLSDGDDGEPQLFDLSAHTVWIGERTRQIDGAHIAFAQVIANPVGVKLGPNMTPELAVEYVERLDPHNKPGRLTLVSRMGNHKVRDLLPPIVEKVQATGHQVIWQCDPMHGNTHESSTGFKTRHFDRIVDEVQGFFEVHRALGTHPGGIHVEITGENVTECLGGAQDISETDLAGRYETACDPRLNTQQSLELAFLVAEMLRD

| Compound | Km (C=C(OP(=O)(O)O)C(=O)O) | kcat (C=C(OP(=O)(O)O)C(=O)O) | kcat/Km (C=C(OP(=O)(O)O)C(=O)O) | X-ray crystal structure (with D/L-Trp) [1] |
| --- | --- | --- | --- | --- |
| 3-deoxy-D-arabino-heptulosonate 7-phosphate synthase (MtuDAH7PS) (Mycobacterium tuberculosis H37Rv) | 37 ± 4 µM | 4.7 ± 0.1 s⁻¹ | 130000 ± 20000 M⁻¹ s⁻¹ |  |
| N[C@@H](Cc1ccccc1)C(=O)O [L-Phe] |  |  |  | The Phe site in the structure obtained from these soaking conditions is occupied by L-Phe |
